Drawing on patent US20160039904A1 (UNITED STATES OF AMERICA AS REPRESENTED BY THE SECRETARY …, published 2016), this text covers Kd for 1 molecule.

For assay [1], the target named is HIV-1 gp140Con-s (HIV-1).
In assay [2] the target is HIV-1 gp140CH12.0544.2 (HIV-1).
The target of assay [3] is HIV-1 gp140MS (HIV-1).

B1: mD1.22 (receptor)
chain: not shown
For B1, the results for the Kd in assay [1], in assay [2] and in assay [3] were 4.4 nM, 0.17 nM and 0.19 nM, respectively.
